We go through one molecule from publication PMC3794860, “An RNA-Binding Complex Involved in Ribosome Biogenesis Contains a Protein with Homology to tRNA CCA-Adding Enzyme” (PLoS Biology, 2013).

In this assay the target is T1, Utp22 (S. cerevisiae, UniProt P53254 1-1237).
T1 construct: Utp22, yeast, 1,237 residues, amplified from yeast genomic DNA, cloned with no tag; Residues 1-80 and several internal loops are not visible in the crystal; A selenomethionine-labelled form was used for phasing; source: High Five insect cells, recombinant baculovirus, coexpressed with Rrp7, copurified (HisTrap, heparin, Superdex 200)
T1 sequence (looked up): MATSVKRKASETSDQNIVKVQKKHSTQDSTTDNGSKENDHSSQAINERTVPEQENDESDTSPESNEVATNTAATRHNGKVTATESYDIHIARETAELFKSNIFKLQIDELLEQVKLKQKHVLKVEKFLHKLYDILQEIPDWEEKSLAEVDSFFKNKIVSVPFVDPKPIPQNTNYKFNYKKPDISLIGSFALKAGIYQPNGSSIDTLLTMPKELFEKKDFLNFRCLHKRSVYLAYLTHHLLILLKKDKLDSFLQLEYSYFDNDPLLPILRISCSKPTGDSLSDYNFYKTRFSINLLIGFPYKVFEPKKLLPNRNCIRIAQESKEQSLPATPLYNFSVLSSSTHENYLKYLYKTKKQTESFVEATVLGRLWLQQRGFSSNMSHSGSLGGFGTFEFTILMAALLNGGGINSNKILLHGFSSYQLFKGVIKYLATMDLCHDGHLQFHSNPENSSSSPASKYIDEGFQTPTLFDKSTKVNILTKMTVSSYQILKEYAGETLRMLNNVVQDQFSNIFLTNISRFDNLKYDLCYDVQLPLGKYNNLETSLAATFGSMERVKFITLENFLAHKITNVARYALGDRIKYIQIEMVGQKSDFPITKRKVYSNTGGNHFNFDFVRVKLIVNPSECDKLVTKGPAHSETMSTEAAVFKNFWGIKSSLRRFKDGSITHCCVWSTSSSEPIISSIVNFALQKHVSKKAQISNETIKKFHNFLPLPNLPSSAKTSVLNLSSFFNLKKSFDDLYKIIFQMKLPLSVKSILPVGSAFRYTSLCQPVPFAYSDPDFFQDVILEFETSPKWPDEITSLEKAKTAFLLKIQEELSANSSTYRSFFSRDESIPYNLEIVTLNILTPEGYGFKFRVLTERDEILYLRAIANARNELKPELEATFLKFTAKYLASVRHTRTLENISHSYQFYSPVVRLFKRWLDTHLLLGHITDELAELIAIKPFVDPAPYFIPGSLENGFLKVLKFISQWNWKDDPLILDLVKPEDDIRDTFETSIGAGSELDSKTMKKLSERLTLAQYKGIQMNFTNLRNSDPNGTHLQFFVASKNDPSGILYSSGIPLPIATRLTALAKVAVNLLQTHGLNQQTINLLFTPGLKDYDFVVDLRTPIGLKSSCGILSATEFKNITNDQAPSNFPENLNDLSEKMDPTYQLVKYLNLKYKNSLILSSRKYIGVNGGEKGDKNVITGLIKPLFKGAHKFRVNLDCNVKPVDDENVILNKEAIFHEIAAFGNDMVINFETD
The experiment in a line: crystal structure; Utp22 and Rrp7 coexpressed in insect cells, copurified and cocrystallised; hanging drop, 20°C, 100 mM sodium cacodylate pH 6.2–6.5, 30% PEG 400, 200 mM lithium sulfate; refined to 1.97 Å. As to conditions: both partners purified.

B1: Rrp7 (natural protein, S. cerevisiae, UniProt P25368 1-297, looked up)
chain: MGIEDISAMKNGFIVVPFKLPDHKALPKSQEASLHFMFAKRHQSSNSNESDCLFLVNLPLLSNIEHMKKFVGQLCGKYDTVSHVEELLYNDEFGLHEVDLSALTSDLMSSTDVNEKRYTPRNTALLKFVDAASINNCWNALKKYSNLHAKHPNELFEWTYTTPSFTTFVNFYKPLDIDYLKEDIHTHMAIFEQREAQAQEDVQSSIVDEDGFTLVVGKNTKSLNSIRKKILNKNPLSKHENKAKPISNIDKKAKKDFYRFQVRERKKQEINQLLSKFKEDQERIKVMKAKRKFNPYT
notes: N-terminal His6-tag followed by a PreScission site, cleaved with PreScission protease; source: High Five insect cells, recombinant baculovirus, coexpressed with Utp22, copurified (HisTrap, heparin, Superdex 200); not shown: His6, N-terminal, cleaved
Regarding B1, the binding result is recorded as “binds”.
